Positions count from the first letter of the chain named.
T1: mouse TNFR1 on L929 cells (mouse, UniProt P25118 30-454)
T1 sequence (looked up): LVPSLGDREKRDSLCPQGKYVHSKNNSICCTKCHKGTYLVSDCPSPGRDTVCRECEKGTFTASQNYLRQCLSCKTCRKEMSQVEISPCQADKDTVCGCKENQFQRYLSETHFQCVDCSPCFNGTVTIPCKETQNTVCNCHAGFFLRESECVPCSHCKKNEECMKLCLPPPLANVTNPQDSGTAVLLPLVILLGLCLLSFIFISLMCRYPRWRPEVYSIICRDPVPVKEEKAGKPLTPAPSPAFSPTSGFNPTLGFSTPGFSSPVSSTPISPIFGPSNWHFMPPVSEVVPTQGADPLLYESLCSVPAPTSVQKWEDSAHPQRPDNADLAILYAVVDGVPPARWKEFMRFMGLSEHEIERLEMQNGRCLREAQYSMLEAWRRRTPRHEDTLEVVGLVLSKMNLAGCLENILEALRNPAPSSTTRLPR

T2: TNF receptor 1 Fc fusion protein (R&D Systems) (human, UniProt P19438 30-211, limits assumed)
T2 construct: bought; also called recombinant TNF receptor 1 (p55); TNFR1-Fc; not shown: Fc part of the bought fusion protein; not described
T2 sequence: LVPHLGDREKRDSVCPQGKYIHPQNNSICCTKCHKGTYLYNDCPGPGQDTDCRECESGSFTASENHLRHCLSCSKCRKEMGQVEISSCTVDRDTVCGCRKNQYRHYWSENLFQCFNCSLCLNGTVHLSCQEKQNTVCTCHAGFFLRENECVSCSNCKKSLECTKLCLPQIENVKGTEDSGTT

T3: human TNFR1 (human p55 TNF receptor) (human, UniProt P19438 30-211, limits assumed)
T3 construct: also called TAR2; human TNF receptor 1
T3 sequence: T2 sequence

T4: mouse TNFR1 (mouse, UniProt P25118 30-212, limits assumed)
T4 construct: also called murine TNFR1; biotinylated murine TNFR1
T4 sequence: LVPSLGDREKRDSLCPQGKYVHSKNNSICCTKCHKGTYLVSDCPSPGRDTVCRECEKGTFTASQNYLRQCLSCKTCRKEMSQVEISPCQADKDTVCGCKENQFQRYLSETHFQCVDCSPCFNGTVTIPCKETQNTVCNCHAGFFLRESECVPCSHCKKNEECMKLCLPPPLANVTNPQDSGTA

T5: human TNFR1 on HeLa cells (human, UniProt P19438 30-455)
T5 sequence (looked up): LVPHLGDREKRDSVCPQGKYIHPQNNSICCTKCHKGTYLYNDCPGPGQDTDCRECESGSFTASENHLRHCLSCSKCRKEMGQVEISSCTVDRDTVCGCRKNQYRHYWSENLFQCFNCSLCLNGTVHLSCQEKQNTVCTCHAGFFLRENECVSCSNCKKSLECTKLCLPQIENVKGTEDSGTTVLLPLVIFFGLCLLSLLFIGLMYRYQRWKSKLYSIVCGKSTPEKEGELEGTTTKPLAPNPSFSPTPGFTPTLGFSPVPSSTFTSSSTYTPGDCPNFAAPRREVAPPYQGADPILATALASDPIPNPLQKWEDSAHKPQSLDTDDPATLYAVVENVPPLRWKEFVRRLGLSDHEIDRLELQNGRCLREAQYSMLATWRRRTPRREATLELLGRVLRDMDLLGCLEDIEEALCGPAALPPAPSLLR

B1: TAR2m21-23 dimer (other)
VH: EVQLLESGGGLVQPGGSLRLSCAASGFTFNRYSMGWLRQAPGKGLEWVSRIDSYGRGTYYEDPVKGRFSISRDNSKNTLYLQMNSLRAEDTAVYYCAKISQFGSNAFDYWGQGTQVTVSSC
B2: TAR2h-27 (other)
chain: EVQLLESGGGLVQPGGSLRLSCAASGFTFTDYNMAWVRQAPGKGLEWVSFISQEGHHTYYADSVKGRFTISRDNSKNTLYLQMNSLRAEDTAVYYCAKFSTIATLSLFDYWGQGTLVTVSS
notes: anti-human TNFR1 dAb
B3: TAR2h-16 (other)
chain: EVQLLESGGGLVQPGGSLRLSCAASGFTFGNYDMQWVRQAPGKGLEWVSSIDGTGGTTYYADSVKGRFTISRDNSKNTLYLQMNSLRAEDTAVYYCAQETNAFDYWGQGTLVTVSS
notes: anti-human TNFR1 dAb
B4: TAR2h-41 (other)
chain: EVQLLESGGGLVQPGGSLRLSCAASGFTFDKYQMGWVRQAPGKGLEWVSFIDSNGHHTYYADSVKGRFTISRDNSKNTLYLQMNSLRAEDTAVYYCAELDNLSITPFDYWGQGTLVTVSS
notes: anti-human TNFR1 dAb
B5: TAR2h-44 (other)
chain: EVQLLESGGGLVQPGGSLRLSCAASGFTFLQYPMVWVRQAPGKGLEWVSSILAPGGPTYYADSVKGRFTISRDNSKNSLYLQMNSLRAEDTAVYYCAKHPTHTPHPNFDYWGQGTLVTVSS
notes: anti-human TNFR1 dAb
B6: TAR2h-29 (other)
chain: EVQLLESGGGLVQPGGSLRLSCAASGFTFATYNMGWVRQAPGKGLEWVSSIAWLGSETYYADSVKGRFTISRDNSKNTLYLQMNSLRAEDTAVYYCAKHCKAECTGDLFDYWGQGTLVTVSS
notes: anti-human TNFR1 dAb
B7: TAR2h-10 (other)
chain: EVQLLESGGGLVQPGGSLRLSCAASGFTFEWYWMGWVRQAPGKGLEWVSAISGSGGSTYYADSVKGRFTISRDNSKNTLYLQMNSLRAEDTAVYYCAKVKLGGGPNFDYWGQGTLVTVSS
notes: anti-human TNFR1 dAb; tied to the entry under the name TAR2-10; also called TAR2-10
B8: TAR2h-42 (other)
chain: EVQLLESGGGLVQPGGSLRLSCAASGFTFAKYNMYWVRQAPGKGLEWVSAISPKGQHTYYADSVKGRFTISRDNSKNTLYLQMNSLRAEDTAVYYCAEGMGSDAITFDYWGQGTLVTVSS
notes: anti-human TNFR1 dAb
B9: TAR2h-14 (other)
chain: EVQLLESGGGLVQPGGSLRLSCAASGFTFDQYDMSWVRQAPGKGLEWVSLIDPSGGHTYYADSVKGRFTISRNNSKNTLYLQMNSLRAEDTAVYYCAKPVFSDWPAVEFDYWGQGTLVTVSS
notes: anti-human TNFR1 dAb
B10: TAR2h-35-4 (other)
chain: EVQLLESGGGLVQPGGSLRLSCAASGFTFDAYNMFWFRQAPGKGPEWVSAIGPSGRETYYADSVKGRFTITRDNSKNTLYLQMNSLRAEDTAVYYCAKRYPDFDYWGQGTLVTVSS
notes: anti-human TNFR1 dAb
B11: TAR2h-131-8 (other)
chain: EVQLLESGGGLIQPGGSLRLSCAASGFTFAHETMVWVRQAPGKGLEWVSHIDRVGQDTYYADSVKGRFTISRDNSKNTLYLQMNSLRAEDTAVYYCAKLPKRGPWFDYRGQGTLVTVSS
notes: anti-human TNFR1 dAb
B12: TAR2h-15-8 (other)
chain: EVRLLESGGGLVQPGGSLRLSCVASGFTFGKSTMTWVRQAPGKGLEWVSHISDDGNSTYYADSVKGRFTISRDNSKNTLYLQMNSLRAEDTAVYYCAKVPILAPRNLFDYWGQGTLVTVSS
notes: anti-human TNFR1 dAb
B13: TAR2m-20 (other)
chain: EVQLLESGGGLVQPGGSLRLSCAASGFTFGSYSMSWVRQAPGKGLEWVSGIDNGGHSTYYADSVKGRFTISRDNSKNTLYLQMNSLRAEDTAVYYCAKRSSGLPFPFDYWGQGTLVTVSS
notes: anti-mouse TNFR1 dAb
B14: TAR2m-19 (other)
chain: EVQLLESGGGLVQPGGSLRLSCAASGFTFRKYDMHWVRQAPGKGLEWVSTISPSGRRTYYADSVKGRFTISRDNSKNTLYLQMNSLRAEDTAVYYCAENLDQVLSFDYWGQGTLVTVSS
notes: anti-mouse TNFR1 dAb
B15: HEL4 (other)
VH: EVQLLESGGGLVQPGGSLRLSCAASGFRISDEDMGWVRQAPGKGLEWVSSIYGPSGSTYYADSVKGRFTISRDNSKNTLYLQMNSLRAEDTAVYYCASALEPLSEPLGFWGQGTLVTVSS
notes: VH dAb
B16: TAR2h-10-55 (other)
chain: B7 chain with T28P, G56D, L81Q, T91A, D108G, W110R
B17: TAR2h-10-7 (other)
chain: B7 chain with E89K, W110R
B18: TAR2h-67 (other)
chain: EVQLLESGGGLVQPGGSLRLSCAASGFTFEDYPMAWVRQAPGKGLEWVSFIGLKGIHTYYADSVKGRFTISRDNSKNTLYLQMNSLRAEDTAVYYCAKDLNNFDYWGQGTLVTVSS
B19: TAR2m-21 (other)
chain: EVQLLESGGGLVQPGGSLRLSCAASGFTFTRYSMGWVRQAPGKGLEWVSRIDSYGRGTYYADSVKGRFTISRDNSKNTLYLQMNSLRAEDTAVYYCAKISQFGSNAFDYWGQGTLVTVSS
B20: TAR2m-21-23 (other)
VH: B19 chain with T30N, V37L, A61E, S63P, T69S, L115Q
B21: TAR2m-21-17 (other)
chain: B19 chain with L115V
B22: TAR2m-21-10 (other)
chain: B19 chain with V37L
B23: TAR2m-21-06 (other)
chain: B19 chain with V37I
B24: TAR2m-21-43 (other)
chain: B19 chain with V37L, Y60D
B25: TAR2m-21-48 (other)
chain: B19 chain with V12I, V37L, Y60D, A61T, K76R
B26: TAR2m-21-07 (other)
chain: B19 chain with T30S, Y32C, V37L, Q101K

Molecular target: T1, mouse TNFR1 on L929 cells
Assay: cell-based or functional assay

fold decrease in ND50 of the dimer against the monomer [fold] | Binder
~10 | B1

Molecular target: T2, TNF receptor 1 Fc fusion protein (R&D …)
Assay: receptor binding assay

IC50 [nM] | Binder
30 | B2
30 | B3
8 | B4
10 | B5
300 | B6
30 | B7
15 | B8
30 | B9

Molecular target: T3, human TNFR1 (human p55 TNF receptor)
Assay: SPR on biotinylated TNFR1, competition with chimeric TNFR1
Procedure: This example describes a method that was used to determine the domain specificity of dAbs that bind TNFR1. […] If the dAb is pre-incubated and equilibrated with a chimeric molecule that comprises the domain(s) of TNFR1 that the particular dAb binds, then flow of this mixture over the TNFR1 surface will produce a smaller SPR signal relative to the dAb alone.
Once the optimum anti-TNFR1 dAb concentration was determined, anti-TNFR1 dAb/chimeric TNFR1 mixes were set up. Mixes were set up such that the final concentration of anti-TNFR1 dAb was identical to the optimal concentration determined previously. Reactions were typically set up in 100 μl volumes containing 50 microliters of a 2× concentrate of anti-TNFR1 dAb, 40 microliters of Biacore buffer and 10 microliters of neat, purified chimeric protein. Typical concentrations for the final mix were about 10-100 μM of chimeric protein and about 10-100 nM anti-TNFR1 dAb. Mixtures were allowed to equilibrate for 30 minutes at room temperature.

binding result | Binder
binds | B10
binds | B11
binds | B12

Molecular target: T4, mouse TNFR1
Assay: receptor binding assay

IC50 [nM] | Binder
150 | B13
2000 | B14

Molecular target: T6, hen egg lysozyme (hen, UniProt P00698 19-147)
T6 construct: also called HEL
T6 sequence (P00698 19-147): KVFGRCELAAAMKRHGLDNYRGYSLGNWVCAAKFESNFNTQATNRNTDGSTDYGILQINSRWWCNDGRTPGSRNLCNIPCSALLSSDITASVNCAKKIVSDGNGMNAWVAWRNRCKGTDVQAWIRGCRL
Assay: selection from a dAb library

binding result | Binder
binds | B15

Molecular target: T5, human TNFR1 on HeLa cells
Assay: cell-based or functional assay

HeLa IL-8 Cell Assay, Activity (IC50) [nM] | Binder
3000 | B2
200 | B3
30 | B4
300 | B5
300 | B6
50 | B7
20 | B16
30 | B17
300 | B18
10 | B8
300 | B9

Molecular target: T1, mouse TNFR1 on L929 cells
Assay: cell-based or functional assay
Remark: another data set of the same source

L929 Cell Assay, Activity (IC50) [nM] | Binder
400 | B19
1 | B20
300 | B21
30 | B22
100 | B23
6 | B24
6 | B25
10 | B26
10000 | B14
